The nature of the data set: soluble on expression in E. coli; label from the status in PepcDB or PDB records.
Take “MSGIKPSVSKGESQAPQTRQLEASKPTVQGIIDILHDTISYVQVEKQSKTINFSIPHLQMIKEQLESIQLKDKNYKDLEKKFNEKQDEHLETIQKLDSTLSRQKLKYDDMRQALSVKIYTLENECSNLQDNYADLQNDFEVQIEKFKKLQNLKSIQNHENSKNVNPLTLDELTEQLKQFKEELSIDQKLKNIQLTCEGLQSAVGNFEMNSKKAKEIEILKMDIKKTQELYESRLLRAAQENKKLLRKNDTLKNYLDNQTAKIGELTAGNKTENRSPTPTLQGLIEILQKFSDDQKLEPECKMLQLHKEECRLILESLEVHDKKDQEIQWFQRQINDQKKRIANLGWSYENALEDKDALELKLEHQYEQMMELKKNFIPKNEISEDLAKTVRNFGKRLRNSRGNLKNAFKELEALKEVQEEEGSSDESSESSASDDLPDGDSSSEE”: the “soluble on expression in E. coli” value is reported as “not soluble”.

On to “MSGINGAGPSNFFWRWRADDEPVTERERDSSSGANLTNSPQLRPESPTVSGRRLLRSNALSRQTREWQETTSASAERATPPVEPRQPPEAQPAERIVAERIVQELVRAGANLNNVRTMLRNVMDNNAVAFSRVEWNILLQHFPDMHTNGISSDSVLANELRQTLRQVVHQQRTQRALAPILSPAPSRPVASSSRSSQRTLLGRFTGWMAPRQTSSSSQATSSTSVDRHPQDLNQLESLRLADAERRNRSANQTDTDEALRRLTQAGVDMERLSTSLGRYIHSFQPAPPDLRRLLESVGIDPDIPEELTLVNNPVLNLNVALNRMLASRQATTESSSVFPSRAGDTRVRTLPVMPEREDNENNVAYGVRLLRLNPEAEVERVVEAFITDPSSRPEVVADIHAVLRSITSQFRQLRTISKADAESQDFRDAADYPDDPTSCLFGEDLSLSNPHQQVIGLAGESTDILQPYSQEGNKALRFMDMKKLAEHLASKPVHPMNRDRLDDKNIAGYAFRVVPD”, for which the “soluble on expression in E. coli” value was “not soluble”.

Take “MSGLHILAFGAHADDVEIGMAGTIAKYTKQGYEVGICDLTEADLSSNGTIELRKEEAKVAARIMGVKTRLNLAMPDRGLYMKEEYIREIVKVIRTYKPKLVFAPYYEDRHPDHANCAKLVEEAIFSAGIRKYMPELSPHRVESFYNYMINGFHKPNFCIDISEYLSIKVEALEAYESQFSTGSDGVKTPLTEGYVETVIAREKMFGKEVGVLYAEGFMSKKPVLLHADLLGGCKLGHHHHHH”: the “soluble on expression in E. coli” value was “soluble”.

As for “MSGNPGSSLSALRPTPPERGSFPLDHDGECTKYMQEYLKCMQLVQNENAMNCRLLAKDYLRCRMDHQLMDYDEWSHLGLPEDAPGNNGKTIKDATDNK”, the “soluble on expression in E. coli” value was “not soluble”.

On to “MSGNSLKGKRIGFGLTGSHCTYDAVFPEIEKLVNEGAEVLPIVTYTVKTTNTRFGEGEEWVKKLEQLTGNEVIDTIVKAEPLGPKIPLDCMVIAPLTGNSMSKLANAMTDSPVLMAAKATMRNHRPVVLGISTNDALGLNGVNLMRLMAAKNIYFIPFGQDAPQAKPNSMVAYMPLLRDTILAALEGKQLQPVIIERFRYN”, for which the “soluble on expression in E. coli” value is reported as “not soluble”.

In the case of “MSGQHRTRVGGVILAAGRSSRYESGNKLLATIDGKAVVRQVTETACKSSLSDAVAVLGHEKVAVAAALDGLSLSVQHNDEYATGQSASVRHGVEFARSAGWDAALFLLGDMPFVRVETIEELLEAYRTGTATVVVPEHEGRRGNPVLFDNCHFDSLASVSGDRGGRDIIETTEKTAFIEVSDPGVHWDIDTDADLAEFTDRRDSLLEHHHHHH”, the “soluble on expression in E. coli” value is on record as “not soluble”.

Consider “MSGSDRGDRLYDVLGVTRDATVQEIKTAYRKLALKHHPDKYVDQDSKEVNEIKFKEITAAYEILSDPEKKSHYDLYGDDNGAASSGG”, for which the “soluble on expression in E. coli” value is “not soluble”.

Regarding “MSGSFELSVQDLNDLLSDGSGCYSLPSQPCNEVTPRIYVGNASVAQDIPKLQKLGITHVLNAAEGRSFMHVNTNANFYKDSGITYLGIKANDTQEFNLSAYFERAADFIDQALAQKNGRVLVHCREGYSRSPTLVIAYLMMRQKMDVKSALSIVRQNREIGPNDGFLAQLCQLNDRLAKEGKLKP”, the “soluble on expression in E. coli” value is reported as “soluble”.

The record behind these values is the DeepSol protein solubility set.
